In general, EC50 refers to the concentration needed to bring the measured effect to its halfway point. What is called Kd is the concentration at which binding is half-saturated. Read a high Kd as lower affinity. As a reminder, the koff is a measure of how fast the partners let go of each other. Lower therefore signals a long-lived complex. A word on the kon: it is a measure of how fast the partners come together. The low end stands for slower complex formation, the high end for faster complex formation.

Experimental findings from patent publication US20100310549A1 (Bristol-Myers Squibb, published 2010) are described below.

Experiment [1] deals with mouse vascular endothelial growth factor receptor-2 Fc chimera (Flk-1-Fc) (mouse) (UniProt P35918). Description: radioactive equilibrium binding.
The target of experiment [2] is T1, mouse vascular endothelial growth factor receptor-2 Fc chimera (Flk-1-Fc) (mouse, UniProt P35918 20-762).
T1 construct: bought from R&D Systems; also called mouse VEGF-R2-Fc; Fc part of the bought chimera not given, not described
Description: radioactive equilibrium binding assay, 1 nM Flk-1-Fc, percent bound, average of 3 experiments.

Experiment [3] concerns the target T2, flk-1/EpoR fusion (pmKE2) on CHO-Flk or Ba/F3-Flk cells (mouse; human, UniProt P35918 20-762; P19235 251-508).
T2 construct: range 1-762;range 251-508; also called CHO Flk-1; EpoR-Flk1 chimera
In words: flow cytometry on CHO-Flk cells, anti-His6 detection.

Experiment [4] deals with T3, full-length human KDR on CHO-KDR cells (human, UniProt P35968 20-1356).
T3 construct: whole, on cells; stably transfected CHO-K1 cells
In words: flow cytometry on CHO-KDR cells, anti-His6 detection. On the procedure:
The functionality of KDR and Flk-1 binding molecules in a cell culture model system was evaluated with E. coli produced binding molecules.
Binding of fibronectin-based scaffold protein to cell-surface KDR and Flk-1 was analyzed simultaneously on VEGF-R2-expressing and control cells by flow cytometry. CHO-pcDNA3 cells (control) were released from their dishes with trypsin-EDTA, washed in Dulbecco's PBS without calcium and magnesium (D-PBS⁻; Invitrogen), and stained for 30 minutes at 37° C. with 1.5 μM CMTMR (5-(and-6)-(((4-chloromethyl)benzoyl)amino)-tetramethylrhodamine) (Molecular Probes). The cells were washed in D-PBS⁻ and incubated for a further 30 minutes at 37° C., and then resuspended in blocking buffer (D-PBS710% fetal bovine serum) on ice. CHO-KDR or CHO-Flk cells were treated identically except that CMTMR was omitted. 75,000 of CMTMR-stained CHO-pcDNA3 cells were mixed with an equal number of unstained CHO-KDR or CHO-Flk cells in each well of a V-bottom 96-well plate. All antibodies and fibronectin-based scaffold proteins were diluted in 25 μl/well of blocking buffer, and each treatment was conducted for 1 hour at 4° C. Cell mixtures were stained with His₆-tagged fibronectin-based scaffold proteins, washed twice with cold D-PBS⁻, and then treated with 2.5 μg/ml anti-His₆ MAb (R&D Systems), washed, and stained with 4 μg/ml Alexa Fluor 488-conjugated anti-mouse antibody (Molecular Probes). For cells treated with an anti-KDR mouse monoclonal antibody (Accurate Chemical, Westbury, N.Y.) or an anti-flk-1 goat polyclonal antibody (R&D Systems), the anti-His₆ step was omitted, and antibody binding was detected with the species-appropriate Alexa Fluor 488 conjugated secondary antibody (Molecular Probes). Following staining, cells were resuspended in 200 μl/well D-PBS⁻/1% FBS/1 μg/ml 7-aminoactinomycin D (7-AAD; Molecular Probes) and analyzed by flow cytometry on a FACSCalibur (Becton Dickinson, San Jose, Calif.) equipped with a […].
On the technique in general: A flow cytometer gives signals particle by particle.

Experiment [5] has as its target VEGFR-2 (KDR) of HUVEC cells (human, UniProt P35968 20-1356). In words: cell-based or functional assay.
The target in experiment [6] is T4, human vascular endothelial growth factor receptor-2 Fc chimera (KDR-Fc) (human, UniProt P35968 20-764).
T4 construct: range 1-764; also called human VEGF-R2-Fc; not shown: human IgG1 Fc
In words: BIAcore, KDR-Fc immobilised on CM5 chip. On the procedure:
(§1) The binding kinetics of fibronectin-based scaffold proteins binding proteins to the target was measured using BIAcore 2000 biosensor (Pharmacia Biosensor). Human and mouse VEGF-R2-Fc fusions were immobilized onto a CM5 sensor chip and soluble binding proteins were injected at concentrations ranging from 0 to 100 nM in buffer O (10 mM HEPES, 150 mM NaCl, 0.005% Tween 20, pH 7.4). Sensorgrams were obtained at each concentration and were evaluated using a program, BIA Evaluation 2.0 (BIAcore), to determine the rate constants […] The affinity constant, KD was calculated from the ratio of rate constants koff/kₒₙ.
(In general: In SPR one partner is held on a chip, and binding of the other changes the refractive index at the surface.)

In experiment [7] the target is T1, mouse vascular endothelial growth …. Description: BIAcore, Flk-1-Fc immobilised on CM5 chip. On the procedure: as §1
Experiment [8] concerns the target human KDR/EpoR fusion (phKE8) on Ba/F3-KDR cells (human, UniProt P35968 20-764; P19235 251-508, limits assumed). In words: cell-based or functional assay.
The target in experiment [9] is T2, flk-1/EpoR fusion (pmKE2) on CHO-Flk or …. In words: cell-based or functional assay.

T2 sequence (P35918 other isoform, or with tags, fused parts or gaps limits assumed, form in doubt): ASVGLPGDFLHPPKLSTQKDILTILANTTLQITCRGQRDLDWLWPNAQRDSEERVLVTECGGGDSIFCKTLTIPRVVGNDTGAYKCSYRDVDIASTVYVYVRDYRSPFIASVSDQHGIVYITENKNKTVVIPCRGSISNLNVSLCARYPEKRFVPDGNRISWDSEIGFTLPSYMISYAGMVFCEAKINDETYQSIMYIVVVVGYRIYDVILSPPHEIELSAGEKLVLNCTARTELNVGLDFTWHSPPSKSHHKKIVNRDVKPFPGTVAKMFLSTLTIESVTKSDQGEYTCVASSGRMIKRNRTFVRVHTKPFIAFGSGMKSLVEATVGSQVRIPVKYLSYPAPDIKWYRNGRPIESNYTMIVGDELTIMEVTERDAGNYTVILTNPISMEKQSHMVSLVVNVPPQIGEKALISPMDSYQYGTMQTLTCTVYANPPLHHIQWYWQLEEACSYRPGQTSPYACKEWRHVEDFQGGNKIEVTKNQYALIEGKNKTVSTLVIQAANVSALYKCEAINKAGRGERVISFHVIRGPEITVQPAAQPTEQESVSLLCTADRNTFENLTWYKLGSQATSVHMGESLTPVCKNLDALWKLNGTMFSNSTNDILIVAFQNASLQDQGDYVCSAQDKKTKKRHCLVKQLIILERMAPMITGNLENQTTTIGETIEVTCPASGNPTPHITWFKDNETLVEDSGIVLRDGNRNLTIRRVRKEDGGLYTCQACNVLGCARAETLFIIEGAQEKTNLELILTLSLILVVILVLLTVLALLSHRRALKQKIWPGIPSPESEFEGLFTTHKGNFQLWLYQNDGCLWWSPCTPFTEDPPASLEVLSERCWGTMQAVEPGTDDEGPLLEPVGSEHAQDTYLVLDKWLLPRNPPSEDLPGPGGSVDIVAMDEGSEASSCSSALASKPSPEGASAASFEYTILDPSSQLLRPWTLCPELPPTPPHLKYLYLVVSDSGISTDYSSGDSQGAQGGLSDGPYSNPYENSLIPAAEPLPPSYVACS
T1 sequence (P35918 20-762, change not shown): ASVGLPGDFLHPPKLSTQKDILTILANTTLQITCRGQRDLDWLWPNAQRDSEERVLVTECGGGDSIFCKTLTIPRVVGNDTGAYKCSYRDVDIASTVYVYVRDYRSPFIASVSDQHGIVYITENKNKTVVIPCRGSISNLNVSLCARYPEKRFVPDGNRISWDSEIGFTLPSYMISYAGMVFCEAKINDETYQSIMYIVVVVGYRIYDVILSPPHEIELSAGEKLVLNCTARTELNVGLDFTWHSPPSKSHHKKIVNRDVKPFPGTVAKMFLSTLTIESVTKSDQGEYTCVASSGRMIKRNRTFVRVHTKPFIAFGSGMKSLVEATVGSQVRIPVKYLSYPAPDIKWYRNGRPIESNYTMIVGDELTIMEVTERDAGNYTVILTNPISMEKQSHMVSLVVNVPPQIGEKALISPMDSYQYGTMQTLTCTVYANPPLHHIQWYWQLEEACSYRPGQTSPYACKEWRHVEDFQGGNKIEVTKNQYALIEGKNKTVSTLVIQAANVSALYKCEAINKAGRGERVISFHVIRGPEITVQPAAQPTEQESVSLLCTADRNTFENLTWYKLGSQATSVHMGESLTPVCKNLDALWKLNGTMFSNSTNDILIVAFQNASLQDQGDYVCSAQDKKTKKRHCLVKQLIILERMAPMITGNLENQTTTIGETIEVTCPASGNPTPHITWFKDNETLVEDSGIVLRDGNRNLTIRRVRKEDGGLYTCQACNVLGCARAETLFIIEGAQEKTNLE
mouse vascular endothelial growth factor receptor-2 Fc chimera (Flk-1-Fc) (mouse), sequence (P35918 20-762, change not shown): as above

B1: EGE11 (FG loop …) (designed binder)
chain: EVVAATPTSLLISWRHPHFPTRYYRITYGETGGNSPVQEFTVPLQPPTATISGLKPGVDYTITGYAVTMGKNDRELLTPISINYRT
Consider B1, for which the Binding to 1 nM Flk-1, % in experiment [1] worked out at 1%.

B2: F6 (designed binder)
chain: EVVAATPTSLLISWRHPHFPTRYYRITYGETGGNSPVQEFTVPLQPPTATISGLKPGVDYTITGYAVTVEQNGRVLMTPISINYRT
As to B2, the Binding to 1 nM Flk-1, % in experiment [1] was 2%.

B3: F10 (Table 2) (designed binder)
chain: EVVAATPTSLLISWRHPHFPTRYYRITYGETGGNSPVQEFTVPLQPPTATISGLKPGVDYTITGYAVTMAPNGRELLTPISINYRT
Take B3: in experiment [1], the Binding to 1 nM Flk-1, % amounted to 1%.

B4: K9 (designed binder)
chain: EVVAATPTSLLISWRHPHFPTRYYRITYGETGGNSPVQEFTVPLQPPTATISGLKPGVDYTITGYAVTFGLYGKELLIPISINYRT
notes: Del 1-8; in vitro translated, Flag tag
As to B4, the binding result in [2] was “no binding (tested: 1 nM Flk-1-Fc)”.

B5: K13 (designed binder)
chain: EVVAATPTSLLISWRHPHFPTRYYRITYGETGGNSPVQEFTVPLQPPTATISGLKPGVDYTITGYAVTLALKGHELLTPISINYRT
notes: as for B4
Regarding B5, in [2], the binding result is reported as “no binding (tested: 1 nM Flk-1-Fc)”.

B6: K1 (designed binder)
chain: EVVAATPTSLLISWRHPHFPTRYYRITYGETGGNSPVQEFTVPLQPPTATISGLKPGVDYTITGYAVTMGLYGHELLTPISINYRT
notes: as for B4
Take B6: the binding result in experiment [2] is given as “no binding (tested: 1 nM Flk-1-Fc)”.

B7: K14 (designed binder)
chain: EVVAATPTSLLISWRHPHFPTRYYRITYGETGGNSPVQEFTVPLQPPTATISGLKPGVDYTITGYAVTREENDHELLIPISINYRT
notes: as for B4
In the case of B7, the binding result in [2] was “no binding (tested: 1 nM Flk-1-Fc)”.

B8: K10 (designed binder)
chain: EVVAATPTSLLISWRHPHFPTRYYRITYGETGGNSPVQEFTVPLQPPTATISGLKPGVDYTITGYAVTTGPNDRLLFVPISINYRT
notes: as for B4
As for B8, the binding result in [2] is “no binding (tested: 1 nM Flk-1-Fc)”.

B9: K15 (designed binder)
chain: EVVAATPTSLLISWRHPHFPTRYYRITYGETGGNSPVQEFTVPLQPPTATISGLKPGVDYTITGYAVTEVHHDREIKTPISINYRT
notes: as for B4
For B9, in [2], the binding result is listed as “no binding (tested: 1 nM Flk-1-Fc)”.

B10: K12 (designed binder)
chain: EVVAATPTSLLISWRHPHFPTRYYRITYGETGGNSPVQEFTVPLQPPTATISGLKPGVDYTITGYAVTDVYNDHEIKTPISINYRT
notes: as for B4
As to B10, the binding result in [2] is listed as “no binding (tested: 1 nM Flk-1-Fc)”.

B11: K6 (designed binder)
chain: EVVAATPTSLLISWRHPHFPTRYYRITYGETGGNSPVQEFTVPLQPPTATISGLKPGVDYTITGYAVTDGKDGRVLLTPISINYRT
notes: as for B4
For the molecule B11, the binding result in experiment [2] is “no binding (tested: 1 nM Flk-1-Fc)”.

B12: E19, E. coli-expressed, His6 (designed binder)
chain: EVVAATPTSLLISWRHPHFPTRYYRITYGETGGNSPVQEFTVPLQPPTATISGLKPGVDYTITGYAVTVERNGRHLMTPISINYRTEIDKPSQHHHHHH
notes: soluble E. coli form; N-terminal residues added for expression not described
Molecule B12 registered an EC50 in [3] of 5.3 nM. The same molecule came in with an EC50 in [4] of 7.6 nM. For the same molecule, the “Inhibition of VEGF-induced proliferation of HUVEC cells (IC50, nM)” value (“Inhibition … of HUVEC cells (IC50, nM)” below) in [5] amounted to 11.8 nM. In experiment [6], this molecule yielded a Kd of 0.06 nM, a koff of 1.7e-05 s⁻¹ and a kon of 300000 M⁻¹ s⁻¹. In [7], this molecule registered a Kd of 0.34 nM, a koff of 0.000223 s⁻¹ and a kon of 660000 M⁻¹ s⁻¹. In experiment [8], the “Inhibition of VEGF-induced proliferation, Ba/F3-KDR (IC50, nM)” value (“Inhibition … Ba/F3-KDR (IC50, nM)” for short) stood at 12.3 nM. The “Inhibition of VEGF-induced proliferation, Ba/F3-Flk (IC50, nM)” value (from here on “Inhibition … Ba/F3-Flk (IC50, nM)”) in [9] is 5.8 nM.

B13: E29, E. coli-expressed, His6 (designed binder)
chain: EVVAATPTSLLISWRHPHFPTRYYRITYGETGGNSPVQEFTVPLQPPTATISGLKPGVDYTITGYAVTVERNGRVLMTPISINYRTEIDKPSQHHHHHH
notes: as for B12
On to B13, for which the EC50 worked out at 0.6 nM in [3] and 2.3 nM in [4]. Moreover, the “Inhibition … of HUVEC cells (IC50, nM)” value in [5] turned out to be 8.4 nM. The Kd in experiment [6] is 0.19 nM; in experiment [7] it was 0.37 nM. For the same molecule, the figures for the koff in [6] and in experiment [7] were 7e-05 s⁻¹ and 0.000288 s⁻¹, respectively. The results for the kon in experiment [6] and in experiment [7] were 360000 M⁻¹ s⁻¹ and 790000 M⁻¹ s⁻¹, respectively. Further, in [8], the “Inhibition … Ba/F3-KDR (IC50, nM)” value is 10 nM. Moreover, the “Inhibition … Ba/F3-Flk (IC50, nM)” value in experiment [9] was determined as 4.7 nM.

B14: E6, E. coli-expressed, His6 (designed binder)
chain: EVVAATPTSLLISWRHPHFPTRYYRITYGETGGNSPVQEFTVPLQPPTATISGLKPGVDYTITGYAVTDGWNGRLLSIPISINYRTEIDKPSQHHHHHH
notes: as for B12
In [6], B14 registered a Kd of 0.08 nM, a koff of 6.7e-05 s⁻¹ and a kon of 890000 M⁻¹ s⁻¹. Moreover, in experiment [7], the Kd was 2.02 nM, the koff was determined as 0.00136 s⁻¹ and the kon came to 670000 M⁻¹ s⁻¹.

B15: E18, E. coli-expressed, His6 (designed binder)
chain: EVVAATPTSLLISWRHPHFPTRYYRITYGETGGNSPVQEFTVPLQPPTATISGLKPGVDYTITGYAVTVERNGRELNTPISINYRTEIDKPSQHHHHHH
notes: as for B12
B15 displayed an EC50 in experiment [3] of 0.9 nM. The molecule further registered an EC50 in [4] of 4.2 nM. The “Inhibition … of HUVEC cells (IC50, nM)” value in experiment [5] is 12.8 nM. In [6], this molecule displayed a Kd of 0.46 nM, a koff of 0.000121 s⁻¹ and a kon of 260000 M⁻¹ s⁻¹. Besides, in [7], the Kd was determined as 0.33 nM, the koff amounted to 0.000195 s⁻¹ and the kon turned out to be 600000 M⁻¹ s⁻¹. Besides, in experiment [8], the “Inhibition … Ba/F3-KDR (IC50, nM)” value worked out at 5.4 nM. In experiment [9], the “Inhibition … Ba/F3-Flk (IC50, nM)” value was 2.4 nM.

B16: M5FL, E. coli-expressed, His6 (designed binder)
chain: VSDVPRDLEVVAATPTSLLISWRHPHFPTRYYRITYGETGGNSPVQEFTVPLQPPLATISGLKPGVDYTITVYAVTKERNGRELFTPISINYRTEIDKPSQHHHHHH
notes: soluble E. coli form with Ser100
Consider B16, for which, in experiment [5], the “Inhibition … of HUVEC cells (IC50, nM)” value came to 8.5 nM. In [6], this molecule yielded a Kd of 0.89 nM, a koff of 9.2e-05 s⁻¹ and a kon of 100000 M⁻¹ s⁻¹. In [7], binding was put at a Kd of 2.1 nM, the koff stood at 0.000582 s⁻¹ and the kon came to 280000 M⁻¹ s⁻¹. Moreover, in experiment [8], the “Inhibition … Ba/F3-KDR (IC50, nM)” value came to 3.9 nM. In addition, the “Inhibition … Ba/F3-Flk (IC50, nM)” value in [9] was 5.1 nM.

B17: VR28, E. coli-expressed, His6 (designed binder)
chain: VSDVPRDLEVVAATPTSLLISWRHPHFPTRYYRITYGETGGNSPVQEFTVPLQPPTATISGLKPGVDYTITGYAVTVAQNDHELITPISINYRTEIDKPSQHHHHHH
notes: soluble E. coli form; N-terminal Met not described
In [6], B17 registered a Kd of 13 nM, a koff of 0.00034 s⁻¹ and a kon of 30000 M⁻¹ s⁻¹.
